Data on 125 sequences can be found in the supplement of paper PMC9112550, “Optimization of the antimicrobial peptide Bac7 by deep mutational scanning” (BMC Biology, 2022).

The subject of this data set is Escherichia coli TOP10. The experiment in a line: shrunken log2 fold change of peptide-encoding DNA abundance (4.5 h post-induction vs induction); higher = less antimicrobial activity (less host growth inhibition). The note with it: time post-induction: 4.5 h; library: site-saturation at positions 5, 18, 19, 20.
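Note: peptides expressed intracellularly from a pBAD plasmid library in pooled LB shake-flask culture, induced with 0.3% L-arabinose, DNA abundance read by NGS, three biological replicates, DESeq2 with apeglm shrinkage.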

Consider RRIRRRPPRLPRPRPRPMPPPRP, for which the “shrunken log2 fold change” value was 0.676.
As for RRIRIRPPRLPRPRPRPCPFPRP, the “shrunken log2 fold change” value is -1.38.
For RRIRVRPPRLPRPRPRPGAVPRP, the “shrunken log2 fold change” value is 0.481.
Regarding RRIRFRPPRLPRPRPRPQGLPRP, the “shrunken log2 fold change” value was -0.462.
For RRIRWRPPRLPRPRPRPQFHPRP, the “shrunken log2 fold change” value is -0.275.
With RRIRPRPPRLPRPRPRPGHAPRP, the “shrunken log2 fold change” value stood at 0.461.
As to RRIRFRPPRLPRPRPRPVCEPRP, the “shrunken log2 fold change” value was 0.182.
With RRIRRRPPRLPRPRPRPANMPRP, the “shrunken log2 fold change” value is -0.0342.
With RRIRIRPPRLPRPRPRPPEHPRP the figure was -0.037; with RRIRARPPRLPRPRPRPDWCPRP, 0.0911; with RRIRDRPPRLPRPRPRPPRLPRP, 0.144.
In the case of RRIRERPPRLPRPRPRPNNTPRP it was -0.769; in that of RRIRWRPPRLPRPRPRPEHCPRP, 0.177.
In the case of RRIRERPPRLPRPRPRPSEQPRP it was -0.0297.
As for RRIRERPPRLPRPRPRPYNGPRP, the “shrunken log2 fold change” value was -0.509.
In the case of RRIRMRPPRLPRPRPRPMASPRP it was 0.00888; in that of RRIRFRPPRLPRPRPRPYPGPRP, 0.00399.
With RRIRLRPPRLPRPRPRPWVHPRP the figure was -0.3.
On to RRIRYRPPRLPRPRPRPIWCPRP, for which the “shrunken log2 fold change” value was -0.268.
As to RRIRPRPPRLPRPRPRPYKPPRP, the “shrunken log2 fold change” value is -0.481.
On to RRIRPRPPRLPRPRPRPQMKPRP, for which the “shrunken log2 fold change” value is -0.151.
Turning to RRIRSRPPRLPRPRPRPCEIPRP, the “shrunken log2 fold change” value is -0.0377.
Consider RRIRERPPRLPRPRPRPPGSPRP, for which the “shrunken log2 fold change” value was -0.0206.
With RRIRTRPPRLPRPRPRPDRNPRP the figure was -0.09; with RRIRFRPPRLPRPRPRPLAYPRP, -0.534.
As for RRIRARPPRLPRPRPRPWWYPRP, the “shrunken log2 fold change” value is -0.172.
In the case of RRIRVRPPRLPRPRPRPCWEPRP it was -0.0578.
Take RRIRIRPPRLPRPRPRPWPMPRP: the “shrunken log2 fold change” value was 0.0828.
In the case of RRIRARPPRLPRPRPRPKRIPRP, the “shrunken log2 fold change” value was 0.122.
With RRIRCRPPRLPRPRPRPGTYPRP the figure was -0.628; with RRIRSRPPRLPRPRPRPATSPRP, 0.0483.
For the sequence RRIRARPPRLPRPRPRPKGNPRP, the “shrunken log2 fold change” value amounted to 0.0299.
In the case of RRIRKRPPRLPRPRPRPRLMPRP it was 0.989; in that of RRIRERPPRLPRPRPRPILSPRP, -0.316; in that of RRIRVRPPRLPRPRPRPGWHPRP, 0.132.
Take RRIRGRPPRLPRPRPRPSCFPRP: the “shrunken log2 fold change” value worked out at 0.504.
Turning to RRIRNRPPRLPRPRPRPKHLPRP, the “shrunken log2 fold change” value is -0.403.
In the case of RRIRHRPPRLPRPRPRPSVGPRP, the “shrunken log2 fold change” value stood at 0.319.
As for RRIRHRPPRLPRPRPRPKKYPRP, the “shrunken log2 fold change” value is -0.806.
Consider RRIRKRPPRLPRPRPRPWDSPRP, for which the “shrunken log2 fold change” value amounted to 0.0485.
Turning to RRIRYRPPRLPRPRPRPFEYPRP, the “shrunken log2 fold change” value is -0.0492.
With RRIRMRPPRLPRPRPRPPQAPRP, the “shrunken log2 fold change” value turned out to be 1.06.
For RRIRSRPPRLPRPRPRPTCYPRP, the “shrunken log2 fold change” value was -0.0144.
With RRIRTRPPRLPRPRPRPLWNPRP, the “shrunken log2 fold change” value was -0.44.
In the case of RRIRLRPPRLPRPRPRPTHCPRP it was -0.0342.
In the case of RRIRCRPPRLPRPRPRPIMYPRP, the “shrunken log2 fold change” value is -0.916.
In the case of RRIRLRPPRLPRPRPRPLEDPRP, the “shrunken log2 fold change” value is -0.076.
Take RRIRVRPPRLPRPRPRPNYLPRP: the “shrunken log2 fold change” value was -0.102.
On to RRIRWRPPRLPRPRPRPQIGPRP, for which the “shrunken log2 fold change” value is 0.0807.
In the case of RRIRDRPPRLPRPRPRPRHDPRP it was 0.0894; in that of RRIRFRPPRLPRPRPRPFLEPRP, -0.355; in that of RRIRHRPPRLPRPRPRPHKDPRP, -0.384.
Consider RRIRVRPPRLPRPRPRPMMKPRP, for which the “shrunken log2 fold change” value was determined as 0.168.
For the sequence RRIRVRPPRLPRPRPRPNKQPRP, the “shrunken log2 fold change” value turned out to be 0.0173.
As to RRIRVRPPRLPRPRPRPQQHPRP, the “shrunken log2 fold change” value was -0.0119.
Regarding RRIRVRPPRLPRPRPRPTSHPRP, the “shrunken log2 fold change” value was -0.139.
In the case of RRIRYRPPRLPRPRPRPTGMPRP, the “shrunken log2 fold change” value is 0.0495.
Take RRIRQRPPRLPRPRPRPKPIPRP: the “shrunken log2 fold change” value was -0.112.
In the case of RRIRFRPPRLPRPRPRPRRLPRP, the “shrunken log2 fold change” value was found to be 0.462.
In the case of RRIRWRPPRLPRPRPRPRGIPRP, the “shrunken log2 fold change” value was 0.234.
In the case of RRIRGRPPRLPRPRPRPDVGPRP, the “shrunken log2 fold change” value stood at 0.434.
With RRIRARPPRLPRPRPRPSMAPRP, the “shrunken log2 fold change” value was 0.333.
For the sequence RRIRCRPPRLPRPRPRPLCHPRP, the “shrunken log2 fold change” value was -0.213.
As for RRIRDRPPRLPRPRPRPYPPPRP, the “shrunken log2 fold change” value was -0.426.
On to RRIRCRPPRLPRPRPRPSDVPRP, for which the “shrunken log2 fold change” value came to 0.00436.
Consider RRIRGRPPRLPRPRPRPEEYPRP, for which the “shrunken log2 fold change” value amounted to 0.0595.
With RRIRWRPPRLPRPRPRPFNGPRP, the “shrunken log2 fold change” value was -0.0132.
In the case of RRIRMRPPRLPRPRPRPKSGPRP it was -0.101; in that of RRIRMRPPRLPRPRPRPWASPRP, 0.0142.
For the sequence RRIRMRPPRLPRPRPRPFAFPRP, the “shrunken log2 fold change” value was 0.0579.
RRIRCRPPRLPRPRPRPWLEPRP: the “shrunken log2 fold change” value came out at 0.117.
For RRIRFRPPRLPRPRPRPQCWPRP, the “shrunken log2 fold change” value worked out at 0.0388.
RRIRQRPPRLPRPRPRPCYCPRP: the “shrunken log2 fold change” value was -0.338.
As to RRIRGRPPRLPRPRPRPGEEPRP, the “shrunken log2 fold change” value amounted to 0.965.
In the case of RRIRIRPPRLPRPRPRPFGSPRP it was 0.00777.
In the case of RRIRWRPPRLPRPRPRPKCFPRP it was -0.076; in that of RRIRARPPRLPRPRPRPTAIPRP, 0.977.
In the case of RRIRARPPRLPRPRPRPNYQPRP it was -0.418; in that of RRIRERPPRLPRPRPRPHTTPRP, -0.205; in that of RRIRRRPPRLPRPRPRPCHQPRP, -0.172.
In the case of RRIRCRPPRLPRPRPRPRNCPRP, the “shrunken log2 fold change” value is -0.288.
With RRIRKRPPRLPRPRPRPLEMPRP the figure was 0.659.
With RRIRERPPRLPRPRPRPYHWPRP, the “shrunken log2 fold change” value is -0.0488.
As for RRIRVRPPRLPRPRPRPIPKPRP, the “shrunken log2 fold change” value is -0.131.
In the case of RRIRARPPRLPRPRPRPPTGPRP, the “shrunken log2 fold change” value was 0.663.
In the case of RRIRMRPPRLPRPRPRPLLPPRP, the “shrunken log2 fold change” value is 0.354.
On to RRIRQRPPRLPRPRPRPKDHPRP, for which the “shrunken log2 fold change” value was -0.185.
For the sequence RRIRLRPPRLPRPRPRPPEAPRP, the “shrunken log2 fold change” value was determined as 0.255.
In the case of RRIRFRPPRLPRPRPRPVNTPRP, the “shrunken log2 fold change” value was -0.377.
Turning to RRIRCRPPRLPRPRPRPNSNPRP, the “shrunken log2 fold change” value is -0.698.
With RRIRLRPPRLPRPRPRPKKLPRP the figure was 0.111.
For the sequence RRIRWRPPRLPRPRPRPWMFPRP, the “shrunken log2 fold change” value worked out at 0.00732.
Take RRIRTRPPRLPRPRPRPKTIPRP: the “shrunken log2 fold change” value was -0.292.
Regarding RRIRMRPPRLPRPRPRPDWIPRP, the “shrunken log2 fold change” value was -0.017.
Turning to RRIRDRPPRLPRPRPRPTSHPRP, the “shrunken log2 fold change” value was -0.146.
With RRIRSRPPRLPRPRPRPFGYPRP the figure was -0.179; with RRIRFRPPRLPRPRPRPGWRPRP, 0.536.
As for RRIRDRPPRLPRPRPRPEDTPRP, the “shrunken log2 fold change” value amounted to 0.509.
With RRIRCRPPRLPRPRPRPNNMPRP the figure was -0.745; with RRIRFRPPRLPRPRPRPWSYPRP, -0.48; with RRIRHRPPRLPRPRPRPTRGPRP, 0.0497.
In the case of RRIRARPPRLPRPRPRPGDIPRP, the “shrunken log2 fold change” value is -0.0868.
On to RRIRNRPPRLPRPRPRPLTQPRP, for which the “shrunken log2 fold change” value was -0.328.
As to RRIRTRPPRLPRPRPRPEKSPRP, the “shrunken log2 fold change” value came to 0.288.
Turning to RRIRWRPPRLPRPRPRPPKMPRP, the “shrunken log2 fold change” value was found to be 0.172.
For RRIRVRPPRLPRPRPRPYVWPRP, the “shrunken log2 fold change” value was -0.567.
In the case of RRIRLRPPRLPRPRPRPWHHPRP it was -0.0279; in that of RRIRNRPPRLPRPRPRPLVQPRP, -0.28; in that of RRIRCRPPRLPRPRPRPTQEPRP, 0.121.
Consider RRIRYRPPRLPRPRPRPHAEPRP, for which the “shrunken log2 fold change” value was -0.144.
In the case of RRIRQRPPRLPRPRPRPYCYPRP it was -0.198.
With RRIRCRPPRLPRPRPRPCHKPRP the figure was -0.0857.
In the case of RRIRFRPPRLPRPRPRPSAAPRP it was 0.346.
Take RRIRHRPPRLPRPRPRPVKMPRP: the “shrunken log2 fold change” value is -0.0874.
Consider RRIRIRPPRLPRPRPRPQHLPRP, for which the “shrunken log2 fold change” value was -0.542.
In the case of RRIRNRPPRLPRPRPRPCNLPRP, the “shrunken log2 fold change” value was -0.134.
Regarding RRIRLRPPRLPRPRPRPHMSPRP, the “shrunken log2 fold change” value was -0.325.
As for RRIRHRPPRLPRPRPRPCEHPRP, the “shrunken log2 fold change” value was -0.00546.
For RRIRERPPRLPRPRPRPLLEPRP, the “shrunken log2 fold change” value came to 0.105.
In the case of RRIRFRPPRLPRPRPRPEAIPRP it was 0.104; in that of RRIRYRPPRLPRPRPRPGWFPRP, -0.112; in that of RRIRNRPPRLPRPRPRPRPMPRP, 0.522.
RRIRPRPPRLPRPRPRPSYCPRP: the “shrunken log2 fold change” value was -0.387.
With RRIRCRPPRLPRPRPRPPVMPRP, the “shrunken log2 fold change” value worked out at 0.298.
Regarding RRIRTRPPRLPRPRPRPKASPRP, the “shrunken log2 fold change” value was -0.0647.
